This series is classed as physicochemical. Conditions: 10 mM PBS buffer (pH=7.4), 37° C., 100 rpm shaker; free drug by HPLC, average release per day. As for the experimental part: The drug release and stability experiments were run using the test compounds. About 2.5±1.0 mg/mL (with regard to conjugate) solution of each test compound was prepared with 10 mM PBS buffer (pH=7.4) in Millipore Amicon® Ultra-0.5 ml 30 k Ultrafiltration centrifuge tube. The solution was kept swelling for 1 h at room temperature and then placed in a shaker at 100 rpm, 37° C. for continuous experiment. At the same time point of each day, samples were centrifuged at 10000 rpm for 1 h. The aliquot was transferred to HPLC vial for analysis. An 0.4 mL of 10 mM PBS buffer was added into the centrifuge tube and continue the experiment.
For the HPLC analysis at each time point, the peak areas of all relevant peaks from the chromatograms were retrieved and the concentration of free drug was calculated. Average release of free drug was calculated based on the sum of free drug and numbers of experiment days. The computing equation is as below.
The sample degradation rate was calculated based on the concentration and degree of substitution (NMR) for conjugated drug with regard to the initial starting point of the experiment (at t=0). The computing equation is as below.
Take “Conjugate of HA and 5-aminopentyl (2-((6S,8S,9S,10R,11S,13S,14S,17R)-11,17-dihydroxy-6,10,13-trimethyl-3-oxo-6,7,8,9,10,11,12,13,14,15,16,17-dodecahydro-3H-cyclopenta[a]phenanthren-17-yl)-2-oxoethyl) carbonate [Example 86]”: the Release rate was 6.93 %/day.
“Conjugate of HA and 5-aminopentyl (2-((8S,9R,10S,11S,13S,14S,16R,17R)-9-fluoro-11,17-dihydroxy-10,13,16-trimethyl-3-oxo-6,7,8,9,10,11,12,13,14,15,16,17-dodecahydro-3H-cyclopenta[a]phenanthren-17-yl)-2-oxoethyl) carbonate [Example 87]” gave a Release rate of 6.96 %/day.
“Conjugate of HA and 5-aminopentyl (2-((8S,9S,10R,11S,13S,14S,17R)-11,17-dihydroxy-10,13-dimethyl-3-oxo-2,3,6,7,8,9,10,11,12,13,14,15,16,17-tetradecahydro-1H-cyclopenta[a]phenanthren-17-yl)-2-oxoethyl) carbonate [Example 90]” came in with a Release rate of 4.56 %/day.
“Conjugate of HA and 5-aminopentyl (2-((8S,9S,10R,11S,13S,14S,17R)-11,17-dihydroxy-10,13-dimethyl-3-oxo-6,7,8,9,10,11,12,13,14,15,16,17-dodecahydro-3H-cyclopenta[a]phenanthren-17-yl)-2-oxoethyl) carbonate [Example 85]” registered a Release rate of 7.65 %/day.
In the case of “Conjugate of HA and 5-aminopentyl (2-((8S,9S,10R,13S,14S,17R)-17-hydroxy-10,13-dimethyl-3,11-dioxo-2,3,6,7,8,9,10,11,12,13,14,15,16,17-tetradecahydro-1H-cyclopenta[a]phenanthren-17-yl)-2-oxoethyl) carbonate [Example 91]”, the Release rate came to 11.66 %/day.
The substance “Conjugate of HA and 5-aminopentyl (2-((8S,9S,10R,13S,14S,17R)-17-hydroxy-10,13-dimethyl-3,11-dioxo-6,7,8,9,10,11,12,13,14,15,16,17-dodecahydro-3H-cyclopenta[a]phenanthren-17-yl)-2-oxoethyl) carbonate [Example 89]” came in with a Release rate of 8.12 %/day.

For the origin of these results see US20240398963A1 (priority 2021, published 2024).
